# Results: patent EP0832971B1
# Where “and” joins values, the source holds several entries; their conditions need not be identical. Identical values can stand only once.
# Experiments:
# [1] = molecular target: gp120, the major envelope glycoprotein of HIV-I (radioiodinated 125I-gp120; unlabeled purified gp120) (HIV-1); assay: saturation binding of 125I-gp120 in solution, immunoprecipitation with OKT4, Scatchard analysis
# [2] = molecular target: HIV-1 strain HTLV-IIIB (virus grown in H9 cells; envelope glycoprotein gp120 on the virus) (HIV-1 strain HTLV-IIIB) (UniProt P04578); assay: cell-based or functional assay
Substance,Kd [1] [nM],"Indirect immunofluorescence (% positive cells), 1:4 inhibitor supernatant (% positive cells) [2]","Indirect immunofluorescence (% positive cells), undil. inhibitor supernatant (% positive cells) [2]","Reverse transcriptase (cpm/ml x 10^5), 1:4 inhibitor supernatant [2]","Reverse transcriptase (cpm/ml x 10^5), undil. inhibitor supernatant [2]"
CD4T (product of pRKCD4T: CD4 fused after residue 368 of mature CD4 to 9 residues coded by pBR322) (from UniProt P01730 26-393) (receptor),0.83,18 and 16.1,0.4 and 0.8,594000 cpm/ml and 372000 cpm/ml,11000 cpm/ml and 15000 cpm/ml
gDCD4T (first 27 residues of mature HSV type I gD glycoprotein fused to mature CD4T; product of pRKGDCD4T) (from UniProt Q69091 1-27; P01730 1-368) (receptor),0.72,26.8 and 36.1,,992000 cpm/ml and 1.13e+06 cpm/ml,14000 cpm/ml and 23000 cpm/ml
